Laboratory results taken from US20220306744A1 (CRESCENDO BIOLOGICS, published 2022).

B1: 1.11a (VHH)
VHH: EVQLLESGGGFVQPGRSLRISCAASGFTFDDYAMHWVRQAPGKDLEWVSGISWNGGSMGYAESVKGRFTISRDNAKNSLYLKMNSLRVEDTALYYCVKDKGPGLIGSTADYYGLDVWGQGTTVTVSS
B2: 1.38a (VHH)
VHH: EVQLVESGGGLVQPGRSLRLSCAASGFTFDDYALHWVRQAPGKDLEWVSGISWNGGSMGYADSVKGRFTISRDNAKNSLYLQMNSLRAEDTALYYCVREKGPGLTGSTADYYGLDAWGQGTMVTVSS
B3: 1.44a (VHH)
VHH: EVQLVESGGGLVQPGRSLRLSCAASGFTFDDYALHWVRQAPGKDLEWVSGISWNSGSYGYADSVKGRFTISRDNAKNSLYLQMNSLRAEDTALYYCVREKGPGLTGSTADYYGLDAWGQGTMVTVSS
B4: 1.32a (VHH)
VHH: EVQLVESGGGLVQPGRSLRLSCAASGFTFDDYAMHWVRQAPGKDLEWVSGISWNSGSMGYADSVKGRFTISRDNAKNSLYLQMNSLRAEDTALYYCVREKGPGLTGSTADYYGLDAWGQGTMVTVSS
B5: 1.43a (VHH)
VHH: EVQLVESGGGLVQPGRSLRLSCAASGFTFDDYAFHWVRQAPGKDLEWVSGISWNAGSYGYADSVKGRFTISRDNAKNSLYLQMNSLRAEDTALYYCVREKGPGLTGSTADYYGLDAWGQGTMVTVSS
B6: 1.30a (VHH)
VHH: EVQLVESGGGLVQPGRSLRLSCAASGFTFDDYAGHWVRQAPGKDLEWVSGISWNGGSMGYAASVKGRFTISRDNAKNSLYLQMNSLRAEDTALYYCVREKGPGLTGSTADYYGLDAWGQGTMVTVSS
B7: 1.42a (VHH)
VHH: EVQLVESGGGLVQPGRSLRLSCAASGFTFDDYAFHWVRQAPGKDLEWVSGISWNGGSQGYADSVKGRFTISRDNAKNSLYLQMNSLRAEDTALYYCVREKGPGLTGSTADYYGLDAWGQGTMVTVSS
B8: 1.36a (VHH)
VHH: EVQLVESGGGLVQPGRSLRLSCAASGFTFDDYAMHWVRQAPGKDLEWVSGISWNAGSMGYADSVKGRFTISRDNAKNSLYLQMNSLRAEDTALYYCVREKGPGLTGSTADYYGLDAWGQGTMVTVSS
B9: 1.13a (VHH)
VHH: QVQLVESGGGLVQPGRSLRLSCAASGFTFDDYAMHWVRQAPGKDLEWVSGISWNGGSMGYAASVKGRFTISRDNAQNSLYLQMNSLRAEDTALYYCVKDKGPGLIGSTADYYGLDVWGQGTTVTVSS
B10: 1.14a (VHH)
VHH: EVQLVESGGGLVQPGRSLRLSCAASGFTFDGYAMHWVRQAPGKGREWVSGISWNSGSMGYAESVKGRFTISRDNAKNSLYLQMNSLRAEDSALYYCVKDKGPGLTGSTADYYGMDVWGQGTTVTVSS
B11: 1.23a (VHH)
VHH: EVQLVESGGGLVQPGRSLRLSCAASGFTFDDYAMHWVRQAPGKDLEWVSGISWNSGSMGYAASVKGRFTISRDNAKNSLYLQMNSLRAEDTALYYCVREKGPGLTGSTADYYGLDVWGQGTMVTVSS
B12: 1.18a (VHH)
VHH: QVQLVESGGGLVQPGRSLRLSCAASGFTFDDYAMHWVRQAPGKDLEWVSGISWNGGSMGYAASVKGRFTISRDNAKNSLYLQMNSLRAEDTALYYCVKDKGPGLIGSTADYYGLDVWGQGTTVTVSS
B13: 1.28a (VHH)
VHH: EVQLVESGGGLVQPGRSLRLSCAASGFTFDDYAMHWVRQAPGKDLEWVSGISWNAGSMGYAASVKGRFTISRDNAKNSLYLQMNSLRAEDTALYYCVREKGPGLTGSTADYYGLDAWGQGTMVTVSS
B14: 1.41a (VHH)
VHH: EVQLVESGGGLVQPGRSLRLSCAASGFTFDDYAFHWVRQAPGKDLEWVSGISWNGGSYGYADSVKGRFTISRDNAKNSLYLQMNSLRAEDTALYYCVREKGPGLTGSTADYYGLDAWGQGTMVTVSS
B15: 1.27a (VHH)
VHH: EVQLVESGGGLVQPGRSLRLSCAASGFTFDDYAMHWVRQAPGKDLEWVSGISWNGGSRGYAASVKGRFTISRDNAKNSLYLQMNSLRAEDTALYYCVREKGPGLTGSTADYYGLDAWGQGTMVTVSS
B16: 1.31a (VHH)
VHH: EVQLVESGGGLVQPGRSLRLSCAASGFTFDDYALHWVRQAPGKDLEWVSGISWNGGSMGYAASVKGRFTISRDNAKNSLYLQMNSLRAEDTALYYCVREKGPGLTGSTADYYGLDAWGQGTMVTVSS
B17: 1.40a (VHH)
VHH: EVQLVESGGGLVQPGRSLRLSCAASGFTFDDYALHWVRQAPGKDLEWVSGISWNGGSQGYADSVKGRFTISRDNAKNSLYLQMNSLRAEDTALYYCVREKGPGLTGSTADYYGLDAWGQGTMVTVSS
B18: 1.45a (VHH)
VHH: EVQLVESGGGLVQPGRSLRLSCAASGFTFDDYALHWVRQAPGKDLEWVSGISWNAGSQGYADSVKGRFTISRDNAKNSLYLQMNSLRAEDTALYYCVREKGPGLTGSTADYYGLDAWGQGTMVTVSS
B19: 1.39a (VHH)
VHH: EVQLVESGGGLVQPGRSLRLSCAASGFTFDDYALHWVRQAPGKDLEWVSGISWNGGSYGYADSVKGRFTISRDNAKNSLYLQMNSLRAEDTALYYCVREKGPGLTGSTADYYGLDAWGQGTMVTVSS
notes: also called Humabody 1.39a
B20: 1.35a (VHH)
VHH: EVQLVESGGGLVQPGRSLRLSCAASGFTFDDYAMHWVRQAPGKDLEWVSGISWNGGSKGYADSVKGRFTISRDNAKNSLYLQMNSLRAEDTALYYCVREKGPGLTGSTADYYGLDAWGQGTMVTVSS
B21: 1.34a (VHH)
VHH: EVQLVESGGGLVQPGRSLRLSCAASGFTFDDYAMHWVRQAPGKDLEWVSGISWNGGSQGYADSVKGRFTISRDNAKNSLYLQMNSLRAEDTALYYCVREKGPGLTGSTADYYGLDAWGQGTMVTVSS
B22: 1.22a (VHH)
VHH: EVQLVESGGGLVQPGRSLRLSCAASGFTFDDYAMHWVRQAPGKDLEWVSGISWNGGSMGYAASVKGRFTISRDNAKNSLYLQMNSLRAEDTALYYCVREKGPGLTGSTADYYGLDAWGQGTMVTVSS
B23: 1.21a (VHH)
VHH: EVQLVESGGGLVQPGRSLRLSCAASGFTFDDYAMHWVRQAPGKDLEWVSGISWNGGSMGYAASVKGRFTISRDNAKNSLYLQMNSLRAEDTALYYCVREKGPGLTGSTADYYGLDVWGQGTMVTVSS
B24: 1.46a (VHH)
VHH: EVQLVESGGGLVQPGRSLRLSCAASGFTFDDYALHWVRQAPGKDLEWVSGISWNAGSYGYADSVKGRFTISRDNAKNSLYLQMNSLRAEDTALYYCVREKGPGLTGSTADYYGLDAWGQGTMVTVSS
B25: 1.24a (VHH)
VHH: EVQLVESGGGLVQPGRSLRLSCAASGFTFDDYAMHWVRQAPGKDLEWVSGISWNSGSMGYAASVKGRFTISRDNAKNSLYLQMNSLRAEDTALYYCVREKGPGLTGSTADYYGLDAWGQGTMVTVSS
B26: 1.37a (VHH)
VHH: EVQLVESGGGLVQPGRSLRLSCAASGFTFDDYAFHWVRQAPGKDLEWVSGISWNGGSMGYADSVKGRFTISRDNAKNSLYLQMNSLRAEDTALYYCVREKGPGLTGSTADYYGLDAWGQGTMVTVSS
B27: 1.12a (VHH)
VHH: QVQLVESGGGLVQPGRSLRLSCAASGFTFDDYAMHWVRQAPGKGREWVSGISWNGGSMGYADSVKDRFTISRDNAKNSLYLQMNSLRAEDTALYYCVKDKGPGLTGSTADYHGMDVWGQGTTVTVSS
B28: 1.25a (VHH)
VHH: EVQLVESGGGLVQPGRSLRLSCAASGFTFDDYAMHWVRQAPGKDLEWVSGISWNGGSQGYAASVKGRFTISRDNAKNSLYLQMNSLRAEDTALYYCVREKGPGLTGSTADYYGLDAWGQGTMVTVSS
B29: 1.33a (VHH)
VHH: EVQLVESGGGLVQPGRSLRLSCAASGFTFDDYAMHWVRQAPGKDLEWVSGISWNGGSYGYADSVKGRFTISRDNAKNSLYLQMNSLRAEDTALYYCVREKGPGLTGSTADYYGLDAWGQGTMVTVSS
B30: 1.16a (VHH)
VHH: QVQLVESGGGLVQPGRSLRLSCAASGFTFDDYAMHWVRQAPGKGREWVSGISWNGGSMGYAESVKGRFTISRDNAKNSLYLQMNSLRAEDSALYYCVKDKGPGLIGSTADYYGMDVWGQGTTVTVSS
B31: 1.29a (VHH)
VHH: EVQLVESGGGLVQPGRSLRLSCAASGFTFDDYAMHWVRQAPGKDLEWVSGISWNSGSMGYADSVKGRFTISRDNAKNSLYLQMNSLRAEDTALYYCVREKGPGLTGSTADYYGLDVWGQGTMVTVSS

Target: T1, human PD-1 expressed on cells (CHO TREX human PD1 cell line, full-length human PD-1 sequence) (human, UniProt Q15116 21-288)
T1 construct: Also used for human PD-1 on Jurkat reporter cells, on PathHunter cells and on PHA-stimulated human CD4+ T cells; also called CHO human PD1 cells; CHO human PD-1 cells
Test: worded summary of the screens

T1 sequence (Q15116 21-288): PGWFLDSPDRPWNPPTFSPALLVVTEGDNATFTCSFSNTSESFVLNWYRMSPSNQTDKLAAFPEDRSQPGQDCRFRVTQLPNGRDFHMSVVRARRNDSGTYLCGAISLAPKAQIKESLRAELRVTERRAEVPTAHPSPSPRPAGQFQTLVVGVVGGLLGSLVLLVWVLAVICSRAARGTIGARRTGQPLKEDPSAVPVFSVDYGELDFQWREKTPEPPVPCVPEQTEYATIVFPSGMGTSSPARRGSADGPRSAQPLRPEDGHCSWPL

Binding result, binds:
B1
B2
B3
B4
B5
B6
B7
B8
B9
B10
B11
B12
B13
B14
B15
B16
B17
B18
B19
B20
B21
B22
B23
B24
B25
B26
B27
B28
B29
B30
B31
